Literature values in paper PMC4385930.

Key:
Bim BH3 (Homo sapiens) = Bim BH3 (Homo sapiens) (UniProt O43521)
Bak BH3 (Homo sapiens) = Bak BH3 (Homo sapiens) (UniProt Q16611)
Bax BH3 (Homo sapiens) = Bax BH3 (Homo sapiens) (UniProt Q07812)

For F1L (from UniProt P24356), the Kd (Bim BH3 (Homo sapiens)) is listed as 0.2 µM, the Kd (Bak BH3 (Homo sapiens)) is listed as 4.3 µM and the Kd (Bax BH3 (Homo sapiens)) is listed as 2 µM.
